{
  "source": "patent US20250108100A1",
  "about": "“C-TERMINAL FRAGMENT OF APOLIPOPROTEIN E AND APPLICATION THEREOF IN INHIBITING y-SECRETASE ACTIVITY” (SYNPHATEC (SHANGHAI) BIOPHARMACEUTICAL TECHNOLOGY CO., LTD., priority 2022, published 2025)",
  "molecules": {"B1": {"name": "ApoE CT: C-terminal fragment of ApoE, positions 216-299 of SEQ ID NO: 12; SEQ ID NO: 33 (protein)", "chain": "ARMEEMGSRTRDRLDEVKEQVAEVRAKLEEQAQQIRLQAEAFQARLKSWFEPLVEDMQRQWAGLVEKVQAAVGTSAAPVPSDNH"}},
  "key": {"5×FAD mice": {"system": "5×FAD mice", "assay": "Amyloid plaques in brain of 5×FAD mice after AAV neuronal expression", "type": "in vivo, mouse", "method": "0-7 months old C57 wild-type mice and AD model mice (5×FAD mice [Tg6799], mice expressing APP and PS1 comprising pathogenic mutations. The expressed APP comprises three mutations: K670N/M671L, I716V, V717I; and PS1 comprises two mutations: M146L, L286V). The mice were given sufficient food and water, and were reared at room temperature with a 12 h/12 h light-dark cycle, and the feeding environment reached the SPF (Specific Pathogen Free) standard.\n• a) The brain was taken by perfusion. The mice were perfused at the heart, the blood was washed out with 20 ml PBS, and then the mice were perfused with 20 ml 4% PFA. • b) Fixation and dehydration. The mice were fixed with 4% PFA at 4° C. for 24 hours, and then dehydrated with 30% sucrose at 4° C. • c) Mouse brain slices. After 24 hours of dehydration, the mice brain was cut into slices at a thickness of 40 μm, stored in frozen buffer solution or used for subsequent immunohistochemistry. • d) THS staining. The mouse brain slices were washed three times with ddH2O, 5 minutes each; soaked in 1% THS aqueous solution for 10 minutes; washed twice with 80% ethanol, each time for 3 minutes; washed once with 95% ethanol for 3 minutes. Immunohistochemistry was performed subsequently. If THS staining is not performed, the following immunohistochemistry was performed directly. • e) Immunohistochemistry. The mouse brain slices were washed three times with 1×PBS for 10 minutes each time; the cell membrane was permeated using 0.1% Triton-X100; the brain slices were blocked by using 5% donkey or goat serum; then the primary antibody was incubated at 4° C., shaken overnight (12-16 h); washed three times with 1×PBS for 10 minutes each time; the secondary antibody was incubated, shaken at room temperature for 1-2 h; washed three times with 1×PBS for 10 minutes each time. • f) Patching and sealing. • g) Imaging, 24 hours post sealing. • h) Images were processed and signal density was analyzed by Image J.\nAdeno-associated virus AAV-CT (AAV2/9-hSyn-ApoE CT) and AAV-GFP (AAV2/9-hSyn-EGFP-WPRE-pA) expressed in neurons were purchased from Tertu Biotechnology Company.\n1 μl of the adeno-associated virus prepared above was injected into the cerebral cortex (x, y, z, +/−1.6, 0, −1) and hippocampus (x, y, z, +/−1.5, −2, −1.5) of 1-month-old mice by using a stereotaxic injection device.\nHuman APP and PS1 with five fAD mutations are expressed in neurons of 5×FAD mice: K670N/M671L+I716V+V717I mutations in APP and M146L+L286V mutations in PS1 (Oakley et al., 2006). All mice were housed under a 12 h light-dark cycle (light from 8 am to 8 pm) with ad libitum access to food and water. All mouse procedures were performed in accordance with the Guide for the Care and Use of Laboratory Animals of the Chinese Academy of Sciences and the National Institutes of Health.\nMice were anesthetized with isoflurane and perfused with 4% PFA. Dissected mouse brains were fixed overnight in 4% PFA and cryoprotected overnight in 30% sucrose. A cryostat (Leica, CM3050S) was used to obtain frozen brain slices ([…]) from fixed and cryoprotected mouse brains. Floating slices were washed 3 times with ddH2O and then incubated with 1% THS (SIGMA) in water for 5 minutes at room temperature. Next, the slices were washed twice with 80% ethanol and once with 95% ethanol for 3 minutes each. The samples were washed with ddH2O and 3 times with 1×PBS before IHC.\nAfter being deeply anesthetized with isoflurane, mice (5 weeks old) were placed in a stereotaxic apparatus (RWD Instruments). The zero point (x, y, z, 0, 0, 0) is Bregma. Lentivirus (lentivirus-GFP, lentivirus-ApoE and lentivirus-ApoE-IRES-GFP) and AAV (AAV2/9-hSyn-EGFP-WPRE-pA and AAV2/9-hSyn-ApoECT; purchased from Shanghai Taitool Bioscience Co. Ltd.) were injected into the cortex (x, y, z, +/−1.6, 0, −1) or hippocampus (x, y, z, +/−1.5, −2, −1.5), injected 1 ul on each injection site. The mice were then returned to their cages for rehabilitation after surgery."}, "[1]": {"system": "APP co-expressed in mouse neuron cell line N2A", "assay": "α-CTF produced by APP co-expressed in N2A cells (Western blot)", "type": "cell-based", "method": "Plasmids were transfected in HEK 293T or N2A cells for 36-48 hours and then lysed in cell lysis buffer [10% 1M tris-HCl (pH=6.8), 4% SDS, 20% glycerol, 0.01% bromophenol blue]. Lysates were shaken at room temperature for 10 min, then boiled for 10 min, and centrifuged at 12,000×g for 10 min. Proteins were run on 8% or 12% Tris-glycine SDS-PAGE and transferred to PVDF membranes (Life Technologies). Samples were incubated overnight at 4° C. with primary antibody diluted in 5% BSA buffer (in 1×TBST). After washing 3 times with 1×TBST, they were incubated with secondary antibody diluted in 5% BSA buffer (in 1×TBST) for 2 hours at room temperature. Finally, after washing 3 times with 1×TBST, the signal was detected by ECL Western blotting substrate (Solarbio, PE0010).\nData were analyzed by GraphPad Prism software (v6) using unpaired, paired, or one-sample t-tests. Aβ40 and Aβ42 levels were normalized to the corresponding GFP controls. α-CTF levels were normalized to FL-APP and corresponding GFP controls. All data are represented as mean±SEM. Statistical significance was defined as p<0.05. One, two, three and four stars (*) in the graph indicate p-values <0.05, <0.01, <0.001 and <0.0001, respectively."}},
  "note": "“Also recorded” adds a separate entry of the source.",
  "data": [
    {"molecule": "B1", "values": [
      {"measurement": "average plaque size", "setting": "5×FAD mice; AAV at 4 weeks, after 10 weeks, subiculum, vs GFP", "result": "significantly reduced"},
      {"measurement": "average area of each amyloid plaque", "setting": "5×FAD mice; AAV at 4 weeks, six months expression, subiculum, vs GFP", "result": "smaller"},
      {"measurement": "percentage of total amyloid plaque area", "setting": "5×FAD mice; after 10 weeks, subiculum", "result": "significantly reduced"},
      {"measurement": "plaque density", "setting": "5×FAD mice; after 10 weeks, subiculum", "result": "significantly reduced"},
      {"measurement": "density of amyloid plaques", "setting": "5×FAD mice; six months expression", "result": "decreases; also recorded: lower"},
      {"measurement": "proportion of total area of amyloid plaques", "setting": "5×FAD mice; six months expression", "result": "smaller proportion"},
      {"measurement": "fluorescence intensity of amyloid plaques", "setting": "5×FAD mice; six months expression, THS", "result": "weaker"},
      {"measurement": "level of α-CTF compared with ApoE2", "setting": "[1]", "result": "significantly increases the level of α-CTF"},
      {"measurement": "α-CTF produced by co-expressed APP", "setting": "[1]; Western blot, vs GFP control", "result": "significantly increases α-CTF"}
    ]}
  ]
}
